Experimental data as given in FireProtDB (doi:10.1002/pro.5560060315).

Conditions: Saccharomyces cerevisiae (strain ATCC 204508 / S288c), CD
[1] = pH 3, Thermal, acetate 0.1 M, reversible: yes (50-75%)
[2] = pH 3.25, Thermal, acetate 0.1 M, reversible: yes (50-75%)
[3] = pH 3.5, Thermal, acetate 0.1 M, reversible: yes
[4] = pH 3.75, Thermal, acetate 0.1 M, reversible: yes
[5] = pH 4, Thermal, acetate 0.1 M, reversible: yes
[6] = pH 4.25, Thermal, acetate 0.1 M, reversible: yes
[7] = pH 4.5, 25 °C, Thermal, acetate 0.1 M, reversible: yes
[8] = pH 4.5, Thermal, acetate 0.1 M, reversible: yes
[9] = pH 4.75, Thermal, acetate 0.1 M, reversible: yes
[10] = pH 5, Thermal, acetate 0.1 M, reversible: yes
[11] = pH 7.5, 25 °C, GdnHCl, Tris-HCl 20 mM, NaCl 40 mM, reversible: yes
[12] = pH 3, Thermal, acetate 0.1 M, reversible: yes, structure 1YCC
[13] = pH 3.25, Thermal, acetate 0.1 M, reversible: yes, structure 1YCC
[14] = pH 3.5, Thermal, acetate 0.1 M, reversible: yes, structure 1YCC
[15] = pH 3.75, Thermal, acetate 0.1 M, reversible: yes, structure 1YCC
[16] = pH 4, Thermal, acetate 0.1 M, reversible: yes, structure 1YCC
[17] = pH 4.25, Thermal, acetate 0.1 M, reversible: yes, structure 1YCC
[18] = pH 4.5, Thermal, acetate 0.1 M, reversible: yes, structure 1YCC
[19] = pH 4.75, Thermal, acetate 0.1 M, reversible: yes, structure 1YCC
[20] = pH 5, Thermal, acetate 0.1 M, reversible: yes, structure 1YCC
[21] = pH 7.5, 25 °C, GdnHCl, Tris-HCl 20 mM, NaCl 40 mM, reversible: yes, structure 1YCC

Sequence of Cytochrome c isoform 1 K79I, P00044 (P00044 whole entry K79I, canonical isoform): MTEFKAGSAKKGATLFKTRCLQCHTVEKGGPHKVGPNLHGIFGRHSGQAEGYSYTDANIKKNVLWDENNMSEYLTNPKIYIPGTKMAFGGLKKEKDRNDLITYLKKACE
Sequence of Cytochrome c isoform 1 wild type, P00044 (P00044 whole entry, canonical isoform): as the sequence (P00044 whole entry K79I, canonical isoform) above, with I79K counted along it

In the case of “Cytochrome c isoform 1 wild type, P00044”, the Tm [1] is reported as 21.5 °C, the “unfolding enthalpy (van 't Hoff)” value [1] is reported as 39.6 kcal/mol and the Tm [2] is reported as 22.6 °C. For the same substance, the “unfolding enthalpy (van 't Hoff)” value [2] was 42 kcal/mol, the Tm [3] was 30.7 °C and the “unfolding enthalpy (van 't Hoff)” value [3] was 54.2 kcal/mol. For the same substance, the Tm [4] was 34.9 °C, the “unfolding enthalpy (van 't Hoff)” value [4] was 62.3 kcal/mol and the Tm [5] was 40.7 °C. The “unfolding enthalpy (van 't Hoff)” value [5] was 69.8 kcal/mol, the Tm [6] was 43.1 °C and the “unfolding enthalpy (van 't Hoff)” value [6] was 73.7 kcal/mol. The “heat capacity change of unfolding” value [7] was 1.4 kcal/mol/K, the “unfolding enthalpy (van 't Hoff)” value [7] was 45.4 kcal/mol and the unfolding free energy [7] was 3.7 kcal/mol. For the same substance, the Tm [8] was 45 °C, the “unfolding enthalpy (van 't Hoff)” value [8] was 73.4 kcal/mol and the Tm [9] was 48.6 °C. The “unfolding enthalpy (van 't Hoff)” value [9] was 79.6 kcal/mol, the Tm [10] was 52.7 °C and the “unfolding enthalpy (van 't Hoff)” value [10] was 81.9 kcal/mol. It also gave a denaturant m value [11] of 4.87 kcal/mol/M and an unfolding free energy [11] of 5.66 kcal/mol.
For Cytochrome c isoform 1 K79I, P00044, the Tm [12] was 22.3 °C, the “change of melting temperature, mutant - wild type (higher = more stable)” value (shortened to “change of melting temperature, mutant”) [12] was 0.8 °C and the “unfolding enthalpy (van 't Hoff)” value [12] was 33 kcal/mol. For the same substance, the Tm [13] was 26.7 °C, the “change of melting temperature, mutant” value [13] was 4.1 °C and the “unfolding enthalpy (van 't Hoff)” value [13] was 40.8 kcal/mol. The Tm [14] was 31.7 °C, the “change of melting temperature, mutant” value [14] was 1 °C and the “unfolding enthalpy (van 't Hoff)” value [14] was 51.4 kcal/mol. For the same substance, the Tm [15] was 35.5 °C, the “change of melting temperature, mutant” value [15] was 0.6 °C and the “unfolding enthalpy (van 't Hoff)” value [15] was 57.7 kcal/mol. For the same substance, the Tm [16] was 38.7 °C, the “change of melting temperature, mutant” value [16] was -2 °C and the “unfolding enthalpy (van 't Hoff)” value [16] was 61.1 kcal/mol. The Tm [17] was 41.3 °C, the “change of melting temperature, mutant” value [17] was -1.8 °C and the “unfolding enthalpy (van 't Hoff)” value [17] was 67.4 kcal/mol. The Tm [18] was 45.2 °C, the “change of melting temperature, mutant” value [18] was 0.2 °C and the “unfolding enthalpy (van 't Hoff)” value [18] was 69.1 kcal/mol. For the same substance, the Tm [19] was 46.9 °C, the “change of melting temperature, mutant” value [19] was -1.7 °C and the “unfolding enthalpy (van 't Hoff)” value [19] was 73.8 kcal/mol. The Tm [20] was 47.7 °C, the “change of melting temperature, mutant” value [20] was -5 °C and the “unfolding enthalpy (van 't Hoff)” value [20] was 77.4 kcal/mol. For the same substance, the “ddG of mutation (higher = less stable)” value [21] was 1.19 kcal/mol, the denaturant m value [21] was 4.29 kcal/mol/M and the unfolding free energy [21] was 4.47 kcal/mol.
